Data published in patent publication US20180185504A1 (Regeneron, published 2018).
Blank lines part the entries; values can stand above or below the binder they belong to.

Columns and labels:
[1] = molecular target: T1, monkey macaca fascicularis PRLR construct with an HA tag on HEK293/mfPRLR cells (macaca fascicularis, UniProt A0A2K5WXK1 25-619); assay: FACS on HEK293/mfPRLR cells
T1 construct: stably transfected into HEK293
T1 sequence: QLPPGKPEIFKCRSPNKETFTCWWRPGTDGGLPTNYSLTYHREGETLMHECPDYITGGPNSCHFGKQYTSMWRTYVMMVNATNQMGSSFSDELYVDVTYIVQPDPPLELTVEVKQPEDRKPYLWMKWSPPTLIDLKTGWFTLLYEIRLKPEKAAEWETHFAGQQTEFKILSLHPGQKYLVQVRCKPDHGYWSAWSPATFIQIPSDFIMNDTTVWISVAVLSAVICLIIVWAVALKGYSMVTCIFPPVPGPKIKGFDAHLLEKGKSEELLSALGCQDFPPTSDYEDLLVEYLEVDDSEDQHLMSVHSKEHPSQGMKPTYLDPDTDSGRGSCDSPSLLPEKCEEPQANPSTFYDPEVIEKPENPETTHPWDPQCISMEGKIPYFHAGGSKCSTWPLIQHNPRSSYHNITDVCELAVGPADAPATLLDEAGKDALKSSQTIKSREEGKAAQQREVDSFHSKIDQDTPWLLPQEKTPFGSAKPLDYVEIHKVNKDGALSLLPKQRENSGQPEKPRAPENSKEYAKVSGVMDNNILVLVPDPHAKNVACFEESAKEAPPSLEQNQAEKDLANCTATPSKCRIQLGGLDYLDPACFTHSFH

[2] = molecular target: T2, human PRLR on cells (endogenous on T47D, T47D#11, MCF7); introduced in HEK293/hPRLR/STAT5-Luc, 293/hPRLR, … (human, UniProt P16471 25-622); assay: FACS on T47D cells
T2 construct: no tag is stated for these lines; also called prolactin receptor
T2 sequence: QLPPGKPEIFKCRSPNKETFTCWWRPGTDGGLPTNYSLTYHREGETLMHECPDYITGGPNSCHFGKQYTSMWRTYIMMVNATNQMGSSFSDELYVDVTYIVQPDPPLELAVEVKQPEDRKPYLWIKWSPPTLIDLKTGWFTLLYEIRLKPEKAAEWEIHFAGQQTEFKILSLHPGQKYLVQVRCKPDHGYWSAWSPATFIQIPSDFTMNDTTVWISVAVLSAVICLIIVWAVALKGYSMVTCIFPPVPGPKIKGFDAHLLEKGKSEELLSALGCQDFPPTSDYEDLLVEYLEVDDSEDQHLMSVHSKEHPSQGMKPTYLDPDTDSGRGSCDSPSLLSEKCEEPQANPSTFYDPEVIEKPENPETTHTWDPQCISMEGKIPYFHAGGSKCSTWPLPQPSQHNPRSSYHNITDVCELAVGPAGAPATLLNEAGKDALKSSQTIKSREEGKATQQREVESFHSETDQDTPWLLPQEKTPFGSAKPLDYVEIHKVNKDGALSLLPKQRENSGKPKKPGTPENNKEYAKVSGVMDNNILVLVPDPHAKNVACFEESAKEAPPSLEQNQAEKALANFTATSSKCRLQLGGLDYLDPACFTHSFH

[3] = molecular target: T3, hPRLR.mFc (soluble dimeric human PRLR) (human); assay: SPR (Biacore), antibody capture, 37 C
T3 construct: dimeric PRLR construct
T3 chain: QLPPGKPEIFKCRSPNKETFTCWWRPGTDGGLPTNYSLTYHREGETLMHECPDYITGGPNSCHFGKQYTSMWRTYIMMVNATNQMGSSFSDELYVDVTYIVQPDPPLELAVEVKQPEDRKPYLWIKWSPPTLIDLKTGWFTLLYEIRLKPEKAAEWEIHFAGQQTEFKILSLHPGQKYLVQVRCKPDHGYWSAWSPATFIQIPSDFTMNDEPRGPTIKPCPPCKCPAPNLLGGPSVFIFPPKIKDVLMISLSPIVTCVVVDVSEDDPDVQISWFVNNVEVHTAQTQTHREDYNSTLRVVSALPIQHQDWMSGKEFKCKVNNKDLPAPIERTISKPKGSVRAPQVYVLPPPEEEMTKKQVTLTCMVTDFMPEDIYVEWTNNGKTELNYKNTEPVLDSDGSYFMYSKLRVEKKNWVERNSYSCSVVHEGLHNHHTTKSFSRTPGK
Procedure: Measurements were conducted on a T200 Biacore instrument. Kinetic association (kₐ) and dissociation (kd) rate constants were determined by processing and fitting the data to a 1:1 binding model using Scrubber 2.0 curve fitting software.

[4] = molecular target: T2, human PRLR on cells (endogenous on …); assay: cell-based or functional assay
[5] = molecular target: T2, human PRLR on cells (endogenous on …); assay: imaging of alexa488 intensity on T47D cells
Outline: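 T47D cells labelled on ice with alexa488 anti-hFc Fab secondary for 30 min, then held 1 h at 37 °C in PBS+2% FBS or at 4 °C. After fixation and DRAQ5 staining, whole-cell (binding) and intracellular-vesicle (internalization) alexa488 intensities at 37 °C quantified by imaging.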

[6] = molecular target: T4, human PRLR construct with an HA tag on HEK293/hPRLR cells (human, UniProt P16471 25-622); assay: FACS on HEK293/hPRLR cells
T4 sequence: T2 sequence

[7] = molecular target: T2, human PRLR on cells (endogenous on …); assay: cell-based or functional assay; remark: listed apart in the source

- FACS Cell Binding (Fold Above Background) [1]: 11 fold
- FACS Cell Binding (Fold Above Background) [2]: 9 fold
- Kd [3]: 4.51 nM
- T 1/2 [3]: 0.0833 h
- koff [3]: 0.0023 s⁻¹
- kon [3]: 509000 M⁻¹ s⁻¹
- % Internalization relative to Control I (T47D cells, imaging) [4]: 15.3%
- % Total Binding relative to Control I [5]: 2%
- FACS Cell Binding (Fold Above Background) [6]: 6 fold
- Percent Blocking at 100 nM Antibody (STAT5-Luc reporter) [7]: 52%
B1: H1H6959N2 (antibody, human IgG1, V domains shown)
VH: EVQLVESGGGLVQPGRSLRLSCAASGFTFDDYAMHWVRQAPGKGLEWVSGISWHSGIIGYADSVKGRFTISRDNAKNSLYLQMNSLRTEDAALYYCAKIGSYFYFDSWGQGTLVTVSS
VL: EIVLTQSPGTLSLSPGERATLSCRASQSVSSNYLAWYQQKPGQAPRLLIYGASSRATGIPDRFSGSGSGTDFTLTISRLEPEDFAVYYCQQFGSSGYTFGQGTNLEIK
notes: also called H2M6959N2

- FACS Cell Binding (Fold Above Background) [1]: 23 fold
- FACS Cell Binding (Fold Above Background) [2]: 33 fold
- Kd [3]: 0.5 nM
- T 1/2 [3]: 1.31 h
- koff [3]: 0.000147 s⁻¹
- kon [3]: 294000 M⁻¹ s⁻¹
- % Internalization relative to Control I (T47D cells, imaging) [4]: 120%
- % Total Binding relative to Control I [5]: 89.7%
- FACS Cell Binding (Fold Above Background) [6]: 29 fold
- IC50 of Blocking 5 nM PRL [M] (STAT5-Luc reporter, HEK293/hPRLR/STAT5-Luc cells) [7]: 1.58e-09 M
- Percent Blocking at 100 nM Antibody (STAT5-Luc reporter) [7]: 100%
B2: H1H6960N (antibody, human IgG1, V domains shown)
VH: EVQLVESGGGLVKPGGSLRLSCAASGITFSSYSMNWVRQAPGKGLEWVSSISTRSSLIHYADSVKGRFTISRDNAKNSLYLQMNSLRDEDTAVYYCARWDAAAAFDYWGQGTLVIVSS
VL: DIQLTQSPSFLSASVGDRVTITCWASQGISSYLAWYQQKPGKAPKLLIYVASTLQSGVPSRFSGSGSGTEFTLTISSLQPEDFATYFCQQLNSYPLTFGGGTKVEIK
notes: also called H2M6960N

- FACS Cell Binding (Fold Above Background) [1]: 18 fold
- FACS Cell Binding (Fold Above Background) [2]: 31 fold
- Kd [3]: 0.0672 nM
- T 1/2 [3]: 1.52 h
- koff [3]: 0.000127 s⁻¹
- kon [3]: 1.88e+06 M⁻¹ s⁻¹
- % Internalization relative to Control I (T47D cells, imaging) [4]: 137%
- % Total Binding relative to Control I [5]: 111%
- FACS Cell Binding (Fold Above Background) [6]: 29 fold
- Percent Blocking at 100 nM Antibody (STAT5-Luc reporter) [7]: 54%
B3: H1H6966N (antibody, human IgG1, V domains shown)
VH: QVQLVQSGAEVQKPGASVKVSCKVSGYTLTALSIHWVRQAPGKGLEWMGNFDPGDGETIHAQKFQGRVTMTGDTSTDTAYMELSSLRSEDTAVYYCVGVTFDYWGQGTLVTVSS
VL: EIVMTQSPATLSVSPGERATLSCRASQSVASNLAWYQQKPGQAPRLLLYGASTRATGIPARFSGSGSGTEFTLTISSLQSEDFALYYCQHYNNWPLTFGGGTKVEIK
notes: also called H2M6966N
